Values quoted from earlier work as cited in article PMC9464622, “The collectin SP-A and its trimeric recombinant fragment protect alveolar epithelial cells from the cytotoxic and proinflammatory effects of human cathelicidin in vitro” (Frontiers in Immunology, 2022).

Test system: LL-37 and β-defensin 3
Source text: The host appears to protect its own cells from LL-37 cytotoxicity by several mechanisms. […] In addition, the C1q globular head receptor (gC1qR, also known as p33) protects ...

B1: p33: negatively charged protein expressed on the surface of various cell types (protein, UniProt Q07021 74-282, looked up)
Complement component 1 Q …: LHTDGDKAFVDFLSDEIKEERKIQKHKTLPKMSGGWELELNGTEAKLVRKVAGEKITVTFNINNSIPPTFDGEEEPSQGQKVEEQEPELTSTPNFVVEVIKNDDGKKALVLDCHYPEDEVGQEDEAESDIFSIREVSFQSTGESEWKDTNYTLNTDSLDWALYDHLMDFLADRGVDNTFADELVELSTALEHQEYITFLEDLKSFVKSQ
binding of LL-37 and β-defensin 3: binds LL-37 and β-defensin 3 with high affinity
